Reference: patent publication US20230220081A1 (Xencor, published 2023)

Molecular target: T1, PD-1 on SEB-stimulated human T cells (human, UniProt Q15116 25-288)
T1 construct: whole, on cells; also called SEB-stimulated T cells
Assay: flow cytometry on SEB-stimulated human PBMCs, APC anti-human kappa MFI on CD3-FITC+ cells
Procedure: Binding of anti-PD-1 clone 1C11 to T cells was measured in an SEB-stimulated PBMC assay. Staphylococcal Enterotoxin B (SEB) is a superantigen that causes T cell activation and proliferation in a manner similar to that achieved by activation via the T cell receptor (TCR), including expression of checkpoint receptors such as PD-1. Human PBMCs were stimulated with […] for 3 days. Following stimulation, PBMCs were incubated with the indicated test articles at indicated concentrations at 4° C. for 30 min. PBMCs were stained with anti-CD3-FITC (UCHT1) and APC labeled antibody for human immunoglobulin κ light chain. The binding of the test articles to T cells as indicated by APC MFI on FITC+ cells is depicted in FIG. 17.

T1 sequence (Q15116 25-288): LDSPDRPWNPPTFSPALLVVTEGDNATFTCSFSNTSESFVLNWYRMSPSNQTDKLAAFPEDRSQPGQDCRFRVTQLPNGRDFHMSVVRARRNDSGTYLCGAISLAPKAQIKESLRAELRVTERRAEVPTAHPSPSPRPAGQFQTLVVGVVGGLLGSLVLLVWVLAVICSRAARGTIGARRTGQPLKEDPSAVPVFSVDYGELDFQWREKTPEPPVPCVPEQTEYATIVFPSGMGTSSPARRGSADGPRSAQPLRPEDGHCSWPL

binding result: binds
B1: XENP21575, chimeric anti-PD-1 antibody based on the variable regions of hybridoma clone 1C11 and human IgG1 with E233P/L234V/L235A/G236del/S267K substitutions … (antibody, V domains shown)
VH: QIQLVQSGPELKKPGETVKISCRASGYTFTHYGMNWVKQAPGKGLKWMGWINTYTGEPTYADDFKGRFAFSLETSASTAYLQINNLKNEDTATYFCARDYYGSSPYWGQGTTLTVSS
VL: DVLMTQTPLSLPVSLGDQASISCRSSQSIVHSNGNTYLEWYLQKPGQSPKLLIYKVSNRFSGVPDRFSGSGSGTDFTLKISRVEAEDLGVYYCFQGSHVPNTFGGGTKLEIKR
notes: Mouse hybridoma variable regions on human IgG1 with FcγR ablation substitutions (EU numbering); also called anti-PD-1 clone 1C11
